# Measured values taken from patent US20120053320A1 (BOARD OF TRUSTEES OF MICHIGAN STATE UNIVERSITY, published 2012).
# B1: PilA pilin subunit of Geobacter sulfurreducens (mature PilA, ca. 6.5-7 kDa band from octyl-glucoside-depolymerized pili) (other)
# chain: FTLIELLIVVAIIGILAAIAIPQFSAYRVKAYNSAASSDLRNLKTALESAFADDQTYPPES
# notes: Native protein from strain PCA, denatured on SDS-PAGE and blotted; also called nanowire pilin subunit; PilA band
# Target: the molecule itself
# Experiment: SDS-PAGE, immunoblot and MALDI-TOF of purified and depolymerized pili (self-assembly)
protein,measurement,value
B1,binding result,binds
